Experimental data: the supplement of paper PMC12042874
± gives the uncertainty stated by the source.

Experiment: amyloid nucleation score (Sup35N fusion, yeast selection) (log enrichment); library NNK1; higher = more nucleation; inactive = no reads after selection
Procedure, shortened: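 Growth for 7 days at 30°C on medium lacking adenine and uracil followed a 24-hour induction with 100 μM copper sulfate of psi-negative yeast expressing peptides of 20 random codons fused to Sup35N. Input and output plasmid inserts were sequenced with Illumina, and sequences with under 100 input reads were excluded. Nucleation score is the DiMSum log enrichment of output over input reads, centred on the mode score of non-aggregating sequences.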

Row | Substance | amyloid nucleation score
1 | HTRNVKTLRVKHSIDVPFLP | 1.41 ± 0.74
2 | FHQDFDSWF | 0.362 ± 0.51
3 | MIIRLVLVGSSYKNVPSAEG | 0.137 ± 0.49
4 | QDRENLNCIHY | 1.24 ± 0.31
5 | VVTQLLEFVSITSEGWSQHM | 2.57 ± 0.096
6 | DGLRCIGCIGNTGDWNS | 6.86 ± 0.085
7 | PRCFYLMSGEMISTYECKRT | 1.05 ± 0.39
8 | DFYYNALIREVGQ | -0.825 ± 0.75
9 | LCNIITGVSSIGAYWSTKIL | 1.22 ± 0.57
10 | EWRFCKS | -0.335 ± 0.33
11 | FRFMVLGLVSLGIGV | -0.59 ± 0.62
12 | GMTLMVAEFGLIRLVNTLAI | 0.785 ± 0.49
13 | IHVAFHSLSQCGRCVYCSVL | 3.25 ± 0.16
14 | SVACPGLARMGRRSGREYNE | -1.46 ± 0.59
15 | TVMVGLKVCAHQLDSM | 1.28 ± 0.4
16 | RSLLLALFAICYVCGGYEWV | 1.24 ± 0.85
17 | SMKCRNGILWFQRLVYLLLS | -0.747 ± 0.56
18 | CYLLQWTSFCQQAFSNEMGW | 0.267 ± 0.67
19 | KYFIMCDIILCVVPVSYTGG | 3.87 ± 0.074
20 | CQEKRSFPVNMNRDIPCLSS | 0.193 ± 1.5
21 | QYCKFPNIRRLRINK | -0.393 ± 0.36
22 | RGIYWVSFVLSGRIIGWMVG | 0.275 ± 0.8
23 | RVGILRMYSMFQFFKSLQWI | -0.372 ± 0.86
24 | SSCGFMRNVIITMHKADIDR | inactive
25 | RPGGGAACAVRGRLPVCQLG | -1.13 ± 0.96

Row | Substance | amyloid nucleation score
26 | LDLAFSFLHSTNIWTTFGLC | -1.6 ± 1.4
27 | NQDFLTLALKWRCECFHTKL | -0.247 ± 1.9
28 | YHGRRVPRDVTNQRTMAQCD | 3.66 ± 0.087
29 | ILVSYLSLPT | 0.802 ± 0.42
30 | FQTFSSICYMISFLIVG | 0.928 ± 0.68
31 | IYQKGMVLGATRNGFSRCKG | -0.173 ± 0.3
32 | FLISWTIVMHVCTMTDACCR | inactive
33 | SLGPFRDVSCYVVAGIQTVN | -1.66 ± 2.7
34 | NFTICLGRSTEHPGIRFDAG | -0.207 ± 1.9
35 | SDLELTTLFF | -0.57 ± 0.37
36 | IMLLAWQLSKMSSFVCKSTR | 0.16 ± 0.74
37 | FPLSTQ | 2.37 ± 0.43
38 | TERDLYDILTKTMGIGVSRW | -0.544 ± 0.57
39 | CFGKSSVWHRYRFYIGNRAI | -0.613 ± 0.75
40 | PWASNIAFLNFPTCTDCDG | 2.09 ± 0.28
41 | EFELRASNLPFNVFPIGFSN | 1.07 ± 0.67
42 | NTDYSQAGVCGSRCLNSAL | 1.54 ± 0.69
43 | EFDFK | -0.716 ± 0.74
44 | NRCVAGRWPNSFVVLGHTFN | -0.211 ± 0.71
45 | WNRYWNLFYRGTLDSTAIGS | -1.76 ± 2.4
46 | WPLLPVELNVSTRHENGLLM | 1.4 ± 0.34
47 | YINLVLGFSYVFLLGLANRM | -0.773 ± 0.24
48 | SGGELVVLIYMNMGASGWAP | -0.756 ± 0.56
49 | MCSERMGFFIVSGVVLKLTH | 0.814 ± 0.57
50 | PYFVIKSRWGQNRS | inactive

Row | Substance | amyloid nucleation score
51 | IVSKFSYQFKSIGINFYFFR | 4.18 ± 0.12
52 | YLPTVIPVFI | 0.125 ± 0.98
53 | VLDMKFKYNVPSLK | 5.41 ± 0.06
54 | HCQVQHLTQFMWVIVMRTRD | 3.5 ± 0.14
55 | CFIDQYVVTNCSLLTYFM | 0.145 ± 0.88
56 | LIVVVTLSGEHRFSVMVYRN | -0.001 ± 0.64
57 | SVRSVRSNPRFTSHLPCSKK | -0.413 ± 0.54
58 | FFRMMKSLFQMRVRIDCRMG | -0.653 ± 1.4
59 | FRSSFGMTHYWEWRASSGRN | 0.882 ± 0.2
60 | SFYVWDDSYCFVFGCTSVKC | -0.291 ± 0.47
61 | LCPGFNWESFLVKMVLHFFR | -0.606 ± 0.75
62 | SFLLGQGTL | 0.724 ± 0.69
63 | KHCDYHRWVEITSKRLFIGG | 0.134 ± 0.3
64 | KSGSKCRLRGSDNSNRLSVM | -0.335 ± 1.5
65 | GKVIQHG | -0.579 ± 1.7
66 | GEDVFVRSNELRN | 0.338 ± 0.38
67 | PYHIKLLQR | 1.44 ± 0.18
68 | SKDGCSCFDIDVAMEGLLMR | -0.053 ± 1.1
69 | VSAND | -0.547 ± 0.4
70 | MLWSKKGTGNYRYCRTGYTG | 0.322 ± 0.49
71 | TRTGSRHPWRCLSDIASCNG | 0.466 ± 0.32
72 | TFRGNRIINQNWGYHCMWWC | 5.733 ± 0.056
73 | FVPIDLGNGK | 0.564 ± 0.51
74 | FVCRLATNYH | inactive
75 | KFLLLSCYIEWRLMSVLAKA | 0.968 ± 0.69

Row | Substance | amyloid nucleation score
76 | ERDCAMISNLSNLTVNY | -0.616 ± 0.36
77 | KHDIIESQPQVVHNNRCVWL | inactive
78 | KIPKSVYVLTSIEGSAFNIK | -0.234 ± 1.6
79 | DKRIARLNPRIGTSVSWDVS | 0.89 ± 0.5
80 | LHLWCLQSFYMCWKCPPILE | 2.57 ± 0.26
81 | IYNRKTYFMTTSATVVFAVP | 0.696 ± 0.4
82 | YMDGVPG | 0.042 ± 1.2
83 | ISKFFYLVW | 0.097 ± 0.52
84 | CRSGYRFLRRRAGLTVMR | -0.413 ± 1.5
85 | LDIINLGGRHFTRSPVLYRN | -0.297 ± 0.49
86 | RYTFVITVYKIDDSSEMSWV | 0.82 ± 0.25
87 | NGCLQRKNWLVSGSFLHFVD | -0.295 ± 0.72
88 | MDRDASYHGYIGHLLSWIGM | 0.886 ± 1.1
89 | GMMHFGCGFSFWWNNFRQWW | 2.49 ± 0.19
90 | FMMCAYSLVPILLP | 0.136 ± 1.1
91 | WVILMMLCILRGRELSVAYW | -0.446 ± 0.99
92 | YGEPYV | 0.829 ± 0.66
93 | FSLDMSTCVLENFVLDTFQH | -2.21 ± 2.7
94 | IVGFHGSNFYSDVSVIGQML | inactive
95 | SVLIRALFTFKLRSVERQDY | 3.82 ± 0.069
96 | YHIGTVVIPWLKVNRIYRGI | 4.96 ± 0.081
97 | TSCPRYECNENTSVYGSLDT | inactive
98 | NVYSIYIINYMAYKVFWDMI | -0.116 ± 0.29
99 | IYISYIRRRFVGLFST | -0.938 ± 0.47
100 | MTAGLHQ | 3.47 ± 0.082

Row | Substance | amyloid nucleation score
101 | CGSRLGEMRAVTGPHLTPMR | -0.233 ± 1.1
102 | DDQKIRRY | 0.602 ± 0.34
103 | HWLSAMIGVPEHGH | -0.121 ± 0.33
104 | SSFYTRFWVGSHMCFAGMPK | 0.203 ± 1.2
105 | SMEIYLDFMNVCSKMVNASG | -0.093 ± 0.3
106 | YFQFRDGIFIFYVTF | 0.415 ± 0.64
107 | PELAGRLSVRDLLW | 0.059 ± 0.47
108 | LTGCLNEYGVSNFMEVRVFR | -1.88 ± 2.7
109 | CRQVFLFLVVPKYYNRMLST | -0.251 ± 0.31
110 | VRSLAFTNVYFEEGAYVANT | -0.532 ± 0.73
111 | WDRTTCVYSLLPMGNSPKVE | 0.144 ± 0.45
112 | LTVGYSRYIPVRYGF | -1.08 ± 0.43
113 | VYFIRIHLLFRHRTGGICNT | 1.06 ± 0.72
114 | HYSHAWTVSRLMWNRDERGA | 1.59 ± 0.2
115 | TLNGFPLSISTANCEVRYDK | 0.005 ± 0.9
116 | NLFIPILVYHDVSRYSLRMD | 6.483 ± 0.055
117 | CRCYNWFRWSLMS | -0.07 ± 0.26
118 | CCLTWAPTRDPFCLVTGVCR | 0.193 ± 1.1
119 | SSVCFGYRAIGTIRHMFSKC | 0.311 ± 0.33
120 | TVWSHCIEFFGHLRKLRSLL | 1.84 ± 0.5
121 | ICGTCCMPNLFVHHYIFLSP | 6.708 ± 0.063
122 | NRNISAIGACTGCTNMVFYS | 5.64 ± 0.11
123 | IRCRQQARTMYNKMEKMGRG | -0.433 ± 0.3
124 | GRMTILSVNSS | 0.328 ± 0.46
125 | SYVSKSYLYKRGSELQAVLQ | -0.157 ± 0.65

Row | Substance | amyloid nucleation score
126 | PFRSFLCRVIRALGLY | 0.212 ± 0.95
127 | LRFLWRRRS | 0.949 ± 0.28
128 | ISSLYLMSFCILFPPRKFVY | -1.09 ± 0.51
129 | PVCWSHFYFRVDVFYEWGRV | -0.274 ± 0.39
130 | GVESLLCYASPLVSWAIFAD | -0.424 ± 0.28
131 | RRVGWLRTRSG | 0.731 ± 0.41
132 | FLWDL | 0.268 ± 0.75
133 | YAHGGWDLVRRNS | 0.232 ± 0.86
134 | VLIWPGRRNSARSYWSSSGL | 1.21 ± 0.66
135 | LLFLYSLNLSRHLY | 0.71 ± 1.1
136 | FLSYDMLYVKLT | 2.44 ± 0.16
137 | MIFPDQYYYSISPW | -0.115 ± 0.28
138 | IMETHLFLTETGNLLSKMGD | inactive
139 | KLYGVSCAPLSEDHCLGKAA | -0.339 ± 0.48
140 | NFICLHQNNMLISPKGTATR | 0.672 ± 0.31
141 | ESSNLYYYRTSHKKKTTLCS | -0.639 ± 1.7
142 | RSSKYVNHASQKNAHLRGCS | 0.641 ± 0.7
143 | NLFVKFLNSRRCINFMTMFD | -0.01 ± 0.77
144 | RVIPAAVISHYVK | -0.143 ± 1.7
145 | FWIFRVLSINANTELSWDIV | -0.631 ± 0.32
146 | VLKDFYNDDKRFQRRL | 0.421 ± 0.3
147 | FFWHVS | 0.091 ± 0.65
148 | SYGGGYTTSQGYGLGELTKY | 0.543 ± 1.1
149 | QRMLHAYLCVNWAELTHIRV | 0.034 ± 0.6
150 | ISIQSLRLSSSSWNLTLHCG | 3.25 ± 0.097

Row | Substance | amyloid nucleation score
151 | IDYRIDCVCFLCSVREEAYR | 7.278 ± 0.047
152 | RVLRVFLGDTLFYCQSGSGL | 1.84 ± 0.22
153 | FQASSLTGPH | -0.574 ± 0.36
154 | LTSCASLWEDRVVLSCLPGG | inactive
155 | DTSSACLCNRDRSDLLVCRV | inactive
156 | SVINIGRNMISI | -0.353 ± 0.67
157 | MRTDFERHIVSYVSELCKLP | -0.162 ± 0.73
158 | GNALRMVWERTQGTLPEYRR | 0.219 ± 0.59
159 | DSSRTLFCRAHWGSRFNGRG | -1.69 ± 2.4
160 | RQLVIIFNDDLGDVGNGNFC | 7.61 ± 0.043
161 | TRNSDASGNCCVTGRDV | -0.849 ± 0.45
162 | QSVHDTHSCHGSH | 0.5 ± 0.63
163 | WISFYSPCMGRAISLSVVDV | 0.68 ± 0.54
164 | TGSLWRLRTSACWVLNHRKS | -1.09 ± 1
165 | TDNTSFELYIWTDAFLKQTT | 0.208 ± 1
166 | LYHIGIGLKRSFNDAYV | 0.038 ± 0.44
167 | ESAHNWWNPVSSYL | 1.06 ± 0.58
168 | TTWRMIFVVKRLHWFGLK | -0.445 ± 0.46
169 | GSMQQNSFREMEPRDSTGGA | -0.844 ± 0.94
